For series [1] the following is noted: in water at room temperature; cited from earlier work.
A short description of series [2]: Stability of hCT upon storage in liquid formulations (precipitate, gel or turbidity indicative of fibrillation). The format is physicochemical. Particulars: bile salts (0.5-1.0%: taurocholate, deoxycholate, glycocholate), neutral or acidic pH. Here is the method:
As used herein, "stable," "stabilizing," and similar terms refer to inhibiting the precipitation, fibrillation, or gelation of human calcitonin molecules upon storage in a liquid medium at a temperature of about 4°-25° C. Human calcitonin is considered "stable" or "stabilized" in a selected liquid medium when no precipitation, fibrillation, or gellation is detected upon storage at a temperature of about 4°-25° C. for a period of at least about 6 months.
Since hCT is highly unstable in aqueous solutions of neutral or basic pH, acidic formulations were investigated to determine whether increased stability could be obtained. […]
Samples (1-2 ml) containing 0.2-10 mg/ml of hCT in aqueous formulations were prepared and then maintained in 4 ml borosilicate vials at ambient temperature or at 4° C. […] In some cases, the concentration of unaggregated hCT was determined using reversed-phase HPLC (Waters modular system with Waters model 745 integrator, Bedford, Mass.) on a Vydac C4 column (4.6 mm×25 cm) equilibrated at a flow rate of 1 ml/min with 0.1% (v/v) trifluoroacetic acid containing 30% (v/v) acetonitrile. […] Absorbance (at 220 nm) of the eluent was recorded and processed to quantify the amount of hCT injected. […]

Series [3] can be described thus: Reversed-phase HPLC analysis of unaggregated hCT in formulations. The format is physicochemical. To be noted: 0.01% acetic acid containing 1.0% SDS; 8 months of storage at ambient temperature. Here is the method:
Samples (1-2 ml) containing 0.2-10 mg/ml of hCT in aqueous formulations were prepared and then maintained in 4 ml borosilicate vials at ambient temperature or at 4° C. The samples were checked periodically for the presence of a precipitate, a gel, or turbidity, which are indicative of fibrillation. In cases of formulations in which the hCT was very unstable, changes in turbidity could be followed over time by spectrophotometry at 340 nm. T. Arvinte et al., The structure and mechanism of formation of human calcitonin fibrils, 268 J. Biol. Chem. 6415-22 (1993), hereby incorporated by reference. In some cases, the concentration of unaggregated hCT was determined using reversed-phase HPLC (Waters modular system with Waters model 745 integrator, Bedford, Mass.) on a Vydac C4 column (4.6 mm×25 cm) equilibrated at a flow rate of 1 ml/min with 0.1% (v/v) trifluoroacetic acid containing 30% (v/v) acetonitrile. Five minutes after injection of a 100 μl sample, a linear gradient of 0.67% acetonitrile/min was applied. Absorbance (at 220 nm) of the eluent was recorded and processed to quantify the amount of hCT injected.
HPLC analysis of hCT in 0.01% acetic acid or in 0.01% acetic acid containing 1.0% SDS was performed to determine the state and concentration of unaggregated hCT in such formulations. […]

For series [4] the following is noted: 5 mg/ml hCT in 0.0001%-1.0% acetic acid; could not be duplicated by the applicant; cited from earlier work.

This is an account of results in US5726154A, “Stabilization and oral delivery of calcitonin” (University of Utah Research Foundation, priority 1996, dated 1998).

For `CCCCCCCCCCCCOS(=O)(=O)[O-].[Na+]` [SDS, sodium dodecyl sulfate], in series [1], the “Critical micelle concentration (CMC)” value was 0.24%.

Human calcitonin [hCT]: the “Time to gel formation” value in series [2] is listed as ≤ 1 h. Besides, in series [3], the “HPLC profiles and UV spectra after storage” value is recorded as “not altered”. In addition, in series [4], the “Period of stable formulation reported by EP 490549” value is on record as 8 months.
